Molecular target: the molecule itself
Experiment: cryo-EM structure; single-particle cryo-EM of the native TMC-2 complex isolated from worms (anti-FLAG affinity, SEC, GDN, 1 mM CaCl2); cis-dimeric particles selected

B1: TMC-2 (transmembrane channel-like protein 2), native, tagged with mVenus-3xFLAG at the endogenous locus (natural protein, C. elegans, UniProt Q11069 1-1203, looked up)
chain: MPKSGAHQPLVRHDTDDGGETGQSVKSLADVSEEEIDSRMSRRSSVIADLLSLFRRSSSVLVRPHTRLGNPNFDDDDDEFDEEDDKEASKDRILKKIQQKKEIIQKLRGQPWYMKRKRRTLKVAQKHLQQQEAKVSKARLYKAEAGRRLTQASRWLDNLKIYLIPWEAKIRKIESHFGSVVSSYFTFHRWVLGVNITITFIMCMFVVIPEWLADSRTQFGDDRYNKTKAIKVMPPAVRARADELSTVWDFGGYFQYSLLFYGFYSKETFFGETIKYRVPVAYFFCNIFILGFSLFIILRKMAANNRRGTLSSGKTQQYLFNWKAFTGWDYTIGNPETAGNVYMANVIKFREAINDDKQKPSDKHPWIRFVARVLTNLFICAMYVFSIWAIMQCGTLKGEHFFAQNATAITISLITLVFPNIFDLLGKIEKLHPRNALRFQLGRVLVLYILNYYTLIYSLMLQLEHLQKEKNASDNPISALGHPGDAIGRTIRETVLPRYPVDNNPHTYYSYAPVTTTPIPATSSWTTVLPDFGPFGVYNPKASVTKDDTVFSSPVVETHMFGPNSDWNETTVNAASPTGATTRASLRMSQGGLCWETIIGQEITKLVTMDLYMTVASIFLIDFLRGLACRYLNLYWPWDLERTFPEYGEFKVAENVLHLVNNQGMIWLGLFFVPLLPMLNNIKLIILMYIRGWAAMTCNVPASQIFRASRSSNFFFALLILFLFLCTLPVGFVIASKTPSKSCGPFGNQSFFYSVITDVLHENLDKTLVNGIKYSLSPGIIIPVLVLLSLVIYFLIAMVTGLSQANQDLSFQLMVERTEEKKKIFELAGGKKKKSKDNTFGKQKPKQLLPPPTKGVSSDDDSQHNRSTAKSVSGRQFVPSLGSVSEVDHSTGEEQSSDSESTTSSLPPKLSLRQRFLVCIGWADPNKYGRHDDIEMEEGGGRLRELSTGSETDSDDEDSEKSNRDMSYRTAIQSFDQNSQSASASSSKSTTTAPSNSEMRIEITENPLHTYITPLRIEKKSSASSSSSSHQPSSSIEKQAARRLLQPISTTHNIRYGVATVENSSQDPTRPPSTDDSLGDPALHEPLWANLNPHSSYTSAMMSPIMNEVMSNDETTDDEKGRLIPDRPPIPHSPRELKRLKREKDQQSESGSKPSTPRPPRFRISMSPPRKPPSEKNDSDSSNRKYEMRVEKSPKKPKKSDND
modifications: N-glycans at N225 and N748
notes: TMC-2, C. elegans, endogenous tmc-2 gene (Wormbase B0416.1a); tag inserted prior to the stop codon; residues M1 to D1203 named; modelled 89-471, 583-813; A 3C (PreScission) site lies between mVenus and 3xFLAG; The complex was captured on anti-FLAG resin by the 3xFLAG tag, which was cut off on elution with 3C protease before SEC, mass spectrometry and cryo-EM; also called TMC-2-mVenus; …
- stoichiometry N: 2

— publication PMC10895266, “The structure of the Caenorhabditis elegans TMC-2 complex suggests roles of lipid-mediated subunit contacts in mechanosensory transduction” (Proceedings of the National Academy of Sciences of the …, 2024)
